By Kd is commonly meant a measure of binding affinity in units of concentration. The low end stands for higher affinity, the high end for lower affinity.

Assay [1] addresses urokinase plasminogen activator receptor (uPAR) (UniProt Q03405). The experiment in a line: direct binding assay.
The target in the next assay is T1, soluble uPAR (suPAR) (UniProt Q03405 23-305, limits assumed).
T1 construct: Analyte in the Biacore capture assay
The experiment in a line: SPR (Biacore 2000), antibody captured on protein A/G surface, suPAR as analyte, 25 C, 1:1 Langmuir fit. On the procedure: The HE™ variants were diluted to 1 μg/mL and injected over a protein A/G surface. Antibody injections were optimized to produce antibody densities of 100-200 RU.
Six serial 3-fold dilutions of soluble uPAR (suPAR) were prepared in running buffer (PBS), and each dilution was injected in triplicate in random order at 25° C. Buffer injections were evenly distributed throughout the run. The sample injections were double-referenced against the blank flow cells and buffer injections to correct for any bulk shift or non-specific binding. Data were analyzed with BiaEvaluation software from Biacore®. Sensorgrams were fit utilizing a 1:1 Langmuir model.

T1 sequence (Q03405 23-305 limits assumed): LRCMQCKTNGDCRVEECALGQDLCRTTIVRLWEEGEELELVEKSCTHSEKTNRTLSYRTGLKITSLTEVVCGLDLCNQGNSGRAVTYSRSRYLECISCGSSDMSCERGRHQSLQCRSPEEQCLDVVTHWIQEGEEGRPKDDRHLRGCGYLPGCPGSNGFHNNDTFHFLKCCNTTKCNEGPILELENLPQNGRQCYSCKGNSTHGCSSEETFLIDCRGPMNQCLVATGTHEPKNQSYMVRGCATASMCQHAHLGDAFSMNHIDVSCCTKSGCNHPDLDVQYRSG
Sequence of urokinase plasminogen activator receptor (uPAR) (Q03405 23-305 limits assumed): as above

On to mouse monoclonal antibody ATN-658, for which the Kd in assay [1] worked out at 1 nM.

B1: HE ™ ATN-1 (antibody, IgG1, V domains shown)
VH: EVQLVQSGPEVVKTGASVKISCKASGYSFTSYYMHWVKQAHGQGLEWIGEINPYNGGASYNQKIKGRATFTVDTSTRTAYMEFSSLRSEDTAVYYCARSIYGHSVLDYWGQGTLVTVSS
VL: DVVMTQSPLSLSVTIGEPASISCRSSQSLLDSDGKTYLNWLLQKPGQSPKRLIYLVSKRDSGVPDRFSGSGSGTDFTLKISRVEAEDVGVYYCWQGTHFPLTFGQGTKLEIK
notes: V regions cloned into transient expression vectors with human gamma-1 and kappa constant region modules (IgG1, kappa); made in HEK293E cells
B1: in the assay with soluble uPAR (suPAR), the Kd came to 0.28 nM.

B2: HE ™ ATN-4 (renamed MNPR-101) (antibody, human IgG1, kappa, V domains shown)
VH: EVQLVQSGPEVKKTGASVKISCKASGYSFTSYYMHWVRQAHGQGLEWIGEINPYNGGASYNQKIQGRATFTVDTSTSTAYMEFSSLRSEDTAVYYCARSIYGHSVLDYWGQGTLVTVSS
VL: DVVMTQSPLSLSVTIGEPASISCRSSQSLLDSDGKTYLNWLLQKPGQSPQRLIYLVSKRDSGVPDRFSGSGSGTDFTLKISRVEAEDVGVYYCWQGTHFPLTFGQGTKLEIKR
notes: IgG1 kappa; In the Biacore assay the transiently expressed (HEK293E), unconjugated antibody was used; also called mAb MNPR-101; humanized mAb MNPR-101
As to B2, the affinity with soluble uPAR (suPAR), expressed as Kd, was 0.39 nM.

B3: HE ™ ATN-2 (antibody, IgG1, V domains shown)
VH: EVQLVQSGPEVVKTGASVKISCKASGYSFTSYYMHWVKQAHGQGLEWIGEINPYNGGASYNQKIKGRATFTVDTSTRTAYMEFSSLRSEDTAVYYCARSIYGHSVLDYWGQGTLVTVSS
VL: DVVMTQSPLSLSVTIGEPASISCRSSQSLLDSDGKTYLNWLLQKPGQSPQRLIYLVSKRDSGVPDRFSGSGSGTDFTLKISRVEAEDVGVYYCWQGTHFPLTFGQGTKLEIK
notes: Human gamma-1 and kappa constant region modules (IgG1, kappa); made in HEK293E cells
In the case of B3, binding with soluble uPAR (suPAR) was characterised by a dissociation constant (Kd) of 0.38 nM.

B4: HE ™ ATN-3 (antibody, IgG1, V domains shown)
VH: EVQLVQSGPEVKKTGASVKISCKASGYSFTSYYMHWVRQAHGQGLEWIGEINPYNGGASYNQKIQGRATFTVDTSTSTAYMEFSSLRSEDTAVYYCARSIYGHSVLDYWGQGTLVTVSS
VL: DVVMTQSPLSLSVTIGEPASISCRSSQSLLDSDGKTYLNWLLQKPGQSPKRLIYLVSKRDSGVPDRFSGSGSGTDFTLKISRVEAEDVGVYYCWQGTHFPLTFGQGTKLEIK
notes: as for B3
B4 gave a Kd with soluble uPAR (suPAR) of 0.28 nM.
